Test: soluble on expression in E. coli; label from the status in PepcDB or PDB records

Sequence | soluble on expression in E. coli
MIRIELPTLIAKLNAQSKLALEQAASLCIERQHPEVTLEYYLDVLLDNPLSDVRLVLKQAGLEVDQVKQAIASTYSREQVLDTYPAFSPLLVELLQEAWLLSSTELEQAELRSGAIFLAALTRADRYLSFKLISLFEGINRENLKKHFAMILSDSAETAVAKTDKNAANPLQAAAETPLGRFCTNVTEQARNGELDPVLSRENELNLMVDILCRRRKNNPIVVGEAGVGKSAMIEGLALRVVAGKVPTQLQNVELYSLDLGRLQAGASVKGEFEKRLKGVIDAIKQSPKPIILFIDEAHTLIGSGNQEGGSDAANLLKPALARGELSTVAATTWKEYKKYFEKDPALTRRFQLVKLDEPTIDQAVDILRGLNSVYEKAHNVLITDDALKAAAELSARYISGRQLPDKAIDVLDTACARIAINMTTPPKRLALLETLCHQRQLEIDMLERAQFLGQEVDSERLDVLRNQELADEAEKAALTQSWQQQKSLVESIIALRAELMELSQAQEQDPDHLLVVRTALQEQYQALDAIDHAERLMHPQVDADQIAEVIADWTGVPVDQMNTDELHKITHLTSILGQAIKGQETAIERIHRHLLTARADLRRPGRPKGAFLLVGPSGVGKTETVVQLAEQLYGGKQFLTTINMSEYQEKHTVSRLIGSPPGYVGYGEGGVLTEAIRKMPYSVVLLDEVEKAHPEVLNIFYQGFDKGEIADGEGRVIDCQNIVFFLTSNLGYQTIVDYADEPAKLDEALYPELAAFFKPALLARMEVIPYLPLGKEVLAQIVRGKLARLEKLFKTRYNAEVVIEESLIDEILSRATRSENGARMLEAIIEGQLLPPVSLALLNKLAERAPVERIRLAAEAGEFIGEVA | not soluble
MIRKCTDHGYFRGGSCQQCKRPGRYVLDDGREEKLGRFVSGTLRHFPASAGVKMDKYGWIDLNAFCEVMKKRYNWMRKEYLYALVESDEKGRYQISGPMIRARYGHSVNVDLDYDESDTPYVYYGASPEEVDVLLENGIFPIKQRYVHLSTTYEKAAEVALIHTESPVILQVDAFRAQEDGISLKLATDYIVLAEKIPPDYLFVLEDLEHHHHHH | soluble
MIRLAHADDLLILQEIERAAGQAFRALGMDSIADDEPLSIDELNSYATAGRAWVSVDGLDYPVAYLLADIVDGAGHVEQVSVHPDQAHQGLGRELLHAARVWTRGHGMQRQTLSTFRDVPWNAPYYRRLGFDVLDAGSWGPQLAHLMEHEAELGLTRWPRVAMWRPAVPPK | soluble
MIRTDNLSDLASARDYWRTDKYISFVITFQFYLLLDTMSDSFNWPAGNNEARERLGEKFESLHLDSRISTSHAKPLSNADPVVVPIYHSSTYRFKTVDQFNEDNHGANFVYRRCGNPTTENVEVVINEIEGGAGSLLYNSGLAAISAVFLEFLSSGAHMIVMNPIYSGTSSFINETLARFGVEITSVDVEKEKDFAGAVEKAIRPNTKMIYFESIANPTMAVPDILGTIEVAKKYKILTCLDATFSSPYNIQPLKLGADISLHSCSKYIGGHTDVIAGVVTVSSYDNWKKLKLQQLTTGSSLSPYDAALLTRGLKTLGLRVDRISENAQKTAEFLESHPKVERVFYPGLPSHPQHQYAKQVMKQFAGMIAFDVGTAENAIKLVESLKLIIHAVSLGGTESLIEHPLSMSHGKHLLRYLDGPTVAPGLLRFSVGIENVEDIIGDLNDALEKL | not soluble
MISANRPIINLDLDLLRTFVAVADLNTFAAAAAAVCRTQSAVSQQMQRLEQLVGKELFARHGRNKLLTEHGIQLLGYARKILRFNDEACSSLMFSNLQGVLTIGASDESADTILPFLLNRVSSVYPKLALDVRVKRNAYMAEMLESQEVDLMVTTHRPSAFKALNLRTSPTHWYCAAEYVLQKGEPIPLVLLDDPSPFRDMVLATLNKVDIPWRLAYVASTLPAVRAAVKAGLGVTARPVEMMSPDLRVLSGVDGLPPLPDTEYLLCYDPSSNNELAQVIYQAMESYHNPWQYSPMSAPEGDDSLLIERDIE | not soluble
MISITSAEVGMKINEWHRHIQKFNVTDAEMLKAEIERDIEVMEEDQDLLIYYQLMAFRHKIMLEYTLPSDENRMELSEYLNKIEGHKKKLDNMRAYYYNFFRGMYEFRNGEYTRAITYYKKAERKIPTISDKIEKAEFYFKLSEVYYHMKMTHISMHYAELSYNIYKKHELYSVRRIQCHFVIAGNYDDLENHEKALPHLQEALKGAELLKSKNTHIYATAFFNLGNCYHKMDNLNKAARYIEQALVQYRKINSDVLPQAYHDLALIYFKQGKKGQAMDCFRKGIRSAVDFKDELFMNLFEALDVLYIRNGDTPKLLNIFSRLENGKGYPYLEELALLGGNLFDYNGKIEDSIICFKK | not soluble
MISLEDASLTKKGIVKLSSATDSDSEALAATPKAVKTVMGEVRTKAPLDSPAFTGTPTTPTPPGDAKGLQTTNAEFVRKLIAALVGSVLEPLDTLQELADALGNDPNFATTVLNKLAGKQPLDETLTALSGKSVDGLIEYVGLRETISRAADALQKSQNGGDIPDKDLFVRRIGAARAFDGAVIIGCDDNPWTTAEFIVWLESQGAFNHPYWMCRGSWSYAYNKIITDTGCGNICLAGAVIEVMGVRGAMTIRVTTSHSVSGW | not soluble
MISLPIDLVLPDLREALVNRNEVILEAPPGAGKTTRVPLALLNESWLGDQKILMLEPRRLAARAAAERLASELGEKVGEIVGYRIRLESKVGPRTKIEVVTEGILARRLQDDPALDGVGVVIFDEYHLRNLHSDLALALCLSGRDLLRDDPPLKLLLMSAT | not soluble
MISRHFTVLTALNLQTKIKICIRNFSIRGAMTKVNGNSNGNGISASTDLLDTPSAYTQKSNKTHTSIDLRSDTVTVPSVEMRRAMAEAIVGDDVYGEDTTTNRLEQRCAELFGKEAGLFVTSGTMGNLLAIMAHCQRGEEIIVGRYNHIHRWEQGNYAQFAGISATTLEVKPDGTMDLNDIEQAIRVKGGYVQIKDESCDDLEVTSIPDCHMPASKLICIENTHNYTGGKALPIEWMRSVKQLAERRDLKVHMDGARIYNAAVASNCSVSKIASFADTVQMCFSKGLGAPVGSIVVGPKDFIDRARHSRKALGGGWRQSGILAAAAHIALDHADATIRADHERAKTLARMINDATPEEFRTKVFAAEKDITNMVLVHCQNGVTVQQLTDFFQKHDILAMTFDARRIRMVLNWNVSDENLETIVEVYKKFLKQL | not soluble
MISVNDFRTGLTIAVDNGLWQVLDFQHVKPGKGAAFVRSKLRNLRTGSVQEKTFRAGEKVEKAHIENRRMQYLYASGEAHVFMDNGTYEQIELGEKQIERELKFLKENMEVSIMTYQGEVLGVELPNTVELQVTETEPGIKGDTASNVTKPATLETGLVVQVPIFINEGEMLIINTGEGKYVSRA | soluble
MISVNKVFYAHSERFQMQNMNVHIKAGEVVSLIGPNGSGKSTLLRLMARLLKQSEGDIVLDGKSIHTMKSADVAKQLAMLPQMHDHQLDLTVKELIEFGRGPHKSWRGRLNKEDEEIVDWALSVTNLEGYEYRLLQSLSGGERQRAWIAMTLAQRTNVLLLDEPTTFLDIVHQLEVMELVKRLNEEFGMTIIMVLHDINQAAQYSDRLLVLKRGKLQYDGVPEEVLCHEMFQHIFGIEVDIFQGSEKPFFTPKRISKKGGAKCEQKNVLPLS | not soluble
MITCGQVSSSLAPCIPYVRGGGAVPPACCNGIRNVNNLARTTPDRQAACNCLKQLSASVPGVNPNNAAALPGKCGVSIPYKISASTNCATVK | soluble
MITELTNIHLIKGNLQANSKNEVFAELAQMLLENNRISNKEDFLNDIEIRERLSVTSMDGIAYPHSKSKAVTKPAIAVGVKHEGIEYGDEEGIKPTVFFMIASPDNGADHHIYVLQELFGKFSEEFIEDIHNAKNEHQILNISIQS | not soluble
MITFTANIDGSQANAGTGTGSLGMGVANILFDDLSNEFSWDISWSGLTGNVTAAHFHGPALLNQNAGVQVAISTLSNPTSGSDTINTAQAADLLAGLWYINIHTDTSPSGEIRGQVQVASVPEPGTLSLLLLSMIGVFYSRSKILLEHHHHHH | not soluble
MITLYGFGKCFNVMDASPFVVKVDLFMRMANIPCQVKYGAKYLKKSPKGKLPFINDNGTVVADSDAIITYLTKQYQVTLDAELTPEQKAQAHLITKSLDEGLYWCLVYSRWATDECWPLTNEAFFATLPIPLRWFLPNIIRKSVKKNLHGQGVGRHSLEEILAISDKSLASLSTLLADKNFFFGDTHTSFDAVVYSHLCEFISVRFDNGFESKFTKNAKRYQNLVQFCQRIEDKFYPEKLEHHHHHH | soluble
MIVALGADLVEIARVERLLSRHGERALRRLFHEEEVAYALARQNPFPSLAARLAAKEAFQKCWPESLSWKEVWVGMEGKRPALRFAPRIEARMAEEGLFAHLSLSHERSHALAVVVLEARARGGG | soluble
MIVFYDSWCPMCTAVAEHTKKLDKKGKMKFVSFRNEDVVEKYELSQELQSKMEQRLYIFKNNKWYDGIQSIDVLAKAVPSYWFAVPFIKLSIVLGFGSKVYDYIANNRKLVPVGHCRGGVCEIPTKK | not soluble
MIVGIGIDIIELNRIEKMLDGKLKFMERILTENERNVAKGLKGSRLTEFVAGRFAAKEAYSKAVGTGIGKEVSFLDIEVRNDDRGKPILITSTEHIVHLSISHSKEFAVAQVVLESSSS | not soluble
MIVLIDNYDSFTYNLYQLLGEYEEEIVVVRNDQITIEQLEEMNPKGIVLSPGPGKPEEAGICIEVIRHFYKNVPILGICLGHQAIISAFGGEIVRAERIKHGKTSRAKHNGTSIFSYVTQPLTAMRYHSLVAAQTSLPQCFDILATAMDDGEIMAVRHNYYPLFGLQFHPESIATEEGGKLIRAFLGEVKEEERV | not soluble
MIVRPVTSADLPALIELARSTGTGLTTLPANEQRLQHRVSWAEKAFRGEAERGDADYLFVLEDDAGKVVGISAIAGAVGLREPWYNYRVGLTVSASQELNIHREIPTLFLANDLTGNSELCSLFLHADHRSGLNGKLLSRARFLFIAEFRHLFGDKLIAEMRGMSDEEGRSPFWESLGRHFFKMEFSQADYLTGVGNKAFIAELMPKFPLYTCFLSEEARGVIGRVHPNTEPALAMLKAEGFSYQGYVDIFDAGPAIEAETDKIRAIAESQNLVLAVGTPGDDAEPYLIHNRKREDCRITAAPARAAAGTLVVDPLTAKRLRLSAGASVRAVPLSAQKRG | not soluble
MIVTEHLFAIEDQTECLISALLESDAVQNYKETKKAMYASAEVAQLQKAFLEAKSAFERVEAYGIHAPDFREKQRALRKAKRALDLNEIVANYRFAETNVQTLLDTIGLKIAQLISEDIKVDAGNPFFERGKKHSGCGGSCHAS | not soluble
MIYMSEIIEVIYEDGVLKPLKPLKIKGKKRLKIKIVNDDVEEFLKSMIIKKCKDIDYKKLKEAYYESFLEHHHHHH | not soluble
MIYRFTIISDEVDDFVREIQIDPEATFFDLHEAILKAANYTNDQMTSFFICDDDWEKEKEITLEEMDNNPEMDSWIMKETRLNELIEDEKQKLLYVFDYMTERCFFIELSEIITGKEIKGAKCTKKSGEAPKQTVDFEEMAAGGGSLDLDENFYGDQDFDMEDFDAEGFDVNDGAAGGGSSYDEDKFLEHHHHHH | soluble
MIYSFRNSGFRDPETGVYNQTYFMEVFNREWHRHIREQQSLALLYLCPHIHETVKQPHLLEFFTKQVQEALLRATDLIARLDHNHFALGLFNIDEEGTEVVLKRIGQHIQDFNQEFGKNHKLKIDYKLAACLCLPTQEQKIESMFNNVSKLSQELERSPQQSQALIKLQ | not soluble
MIYSMTAYARKEVKGNWGSAVWEIRSVNQRYLETYFRMPEQFRALEPVLRERFRKRLARGKVECSLRFEANPAAKAELSINEALATQVIKAAEQVMHMTGELSRINPFQVMQWPGVMETPEQNMDEVNKELLAAFDEAISEFIEARGREGDNMKALIEQRLDAITAEVVKVRARMPEILEWQRERLFSKFEDAKIELDASRVEQELILLAQKSDVAEELDRLDSHVKETTNILKKGGAVGRRLDFMMQEFNRESNTLASKSISTDITASGVELKVLIEQMREQIQNIE | not soluble
